Test results published in the supplement of paper PMC9732359.
± gives the uncertainty stated by the source.

Assay: protein stability index of a GFP-peptide fusion (yeast GPS) (PSI 1-4); higher = more stable; sorted into four equal gates, so the index is relative within each strain
Conditions: pdr5∆
Method in brief: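 Mid-log yeast cultures in leucine-free medium, carrying a pooled plasmid library, were sorted into four equal gates by their GFP/Cherry fluorescence ratio. Each plasmid expressed Cherry along with GFP fused upstream of a tiled 17-residue yeast protein peptide. Plasmids recovered from each gate were PCR-amplified and Illumina-sequenced, with reads assigned to strains by barcodes. The protein stability index was obtained by summing each gate's read frequency weighted by its gate number.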

Row | Sequence | protein stability index
1 | KNYSRPSTAIHTSPHQP [SIR4] | 2.72 ± 0.044
2 | KPAEKNNNETSKPAFSF [YJL041W/NSP1] | 1.98 ± 0.06
3 | KPAFSFGAKPDENKASA [YJL041W/NSP1] | 3.3 ± 0.074
4 | KPETLSIGKNPFNKPNI [SWI3] | 2.9 ± 0.041

Same assay, conditions: san1∆

Row | Sequence | protein stability index
5 | KDLVIVSNLMGRNIGHP [RPB3] | 3.18 ± 0.039
6 | KDMSPILGELKRVKSYM [LRP1] | 2.51 ± 0.059
7 | KDPSPEILVLYNVCDTS [SIN4] | 2.82 ± 0.058
8 | KDQDSQIELSCNERVPL [SRP72] | 2.83 ± 0.056
9 | KDSLDNTFVTRLNNVFV [RPS4A] | 2.95 ± 0.085
10 | KDSLWQSEHLEAVVDQD [FAS1] | 3.46 ± 0.088
11 | KDWELEARFWHLVELLL [YDL116W/NUP84] | 1.92 ± 0.15
12 | KEDAKATMENIQKGKFT [SRP54] | 3.09 ± 0.062
13 | KEEFSSDESIERLMTWK [RRI2] | 2.55 ± 0.11
14 | KEEGLQQFNLHEILSEP [MED1] | 3.12 ± 0.12
15 | KEEQPKQIIVTRKAMLD [PRP8] | 2.71 ± 0.068
16 | KEHDEIEEQGDALQDVE [DPB4] | 3.36 ± 0.06
17 | KEIMDKIITSRPLQKIM [SIN4] | 1.45 ± 0.18
18 | KEKESKKDSKPAFSFGI [YLR335W/NUP2] | 3.19 ± 0.058
19 | KEKIQHELGINIDSLKF [BRR2] | 3.05 ± 0.043
20 | KEKVEEQEQQQQQIIKI [RPS20] | 3.19 ± 0.066
21 | KEKVSNGGVGVDVELIT [FAS2] | 3.11 ± 0.056
22 | KEKYGLAVSTILGKNFD [SMC1] | 2.69 ± 0.057
23 | KELFEKTFDYVSDHLDA [SMC1] | 2.9 ± 0.077
24 | KELNTERQIFLEACIVR [CDC53] | 2.5 ± 0.056
25 | KELQLEKESVEKQHENA [SMC3] | 2.85 ± 0.071
26 | KENDTVMNTKLLQEGGS [ESC2] | 3.04 ± 0.078
27 | KEPKKLLPNSKNVENTK [DSN1] | 2.59 ± 0.14
28 | KEPPRDRKKDKNVKHSG [RPL12A] | 3.22 ± 0.067
29 | KEPVDDKDVKAKYETSI [FAS2] | 2.43 ± 0.12

Row | Sequence | protein stability index
30 | KEQYNRYRDLMISCLMN [MTR3] | 2.4 ± 0.07
31 | KERNQKFQLQNQLEDFI [YIL149C/MLP2] | 2.78 ± 0.05
32 | KESDESKSAFSFGSKPT [YJL041W/NSP1] | 3.198 ± 0.029
33 | KESQLPRIQRADPVALY [RPB5] | 2.5 ± 0.089
34 | KFELGRQPANTKIGAKR [RPS8A] | 2.91 ± 0.11
35 | KFFIMIVKGNIIDEIKC [POP4] | 1.49 ± 0.094
36 | KFLILNENPINKIMTNQ [NUT1] | 2.67 ± 0.07
37 | KFQKLLQNSERDVELSS [SMC4] | 2.94 ± 0.041
38 | KFSDIIQGISKMYSDDT [BRN1] | 2.14 ± 0.08
39 | KGLLIWRLLFIDKFIMV [GRR1] | 1.41 ± 0.089
40 | KGLQIYQSSVQEPFLNS [PRP8] | 2.76 ± 0.048
41 | KGLTYLHLDYNFNLKPT [PRP8] | 2.05 ± 0.05
42 | KGRFAVHRITDEEASYK [RPS4A] | 3.35 ± 0.061
43 | KGSRKSSKAATPDTKNF [SNF12] | 3 ± 0.058
44 | KGTGEESNDRINKIVEI [YGR119C/NUP57] | 2.93 ± 0.17
45 | KGTNGKKALKVRTSATF [RPL25] | 3.06 ± 0.13
46 | KGTVFQFEIPISDDDDS [POP4] | 2.29 ± 0.15
47 | KHEDLSLEQRQEVTKFA [RPN4] | 2.84 ± 0.1
48 | KHIKNLEDDSLLSYPIK [RPN12] | 2.56 ± 0.045
49 | KICRGRMNTIITHPGKM [SIR4] | 3.23 ± 0.16
50 | KICSSEMINEQKLPQYI [RGR1] | 3.01 ± 0.15
51 | KIELIKNNLLIPDLSIQ [RPN12] | 2.66 ± 0.046
52 | KIENSVQIGAEIILDFL [CSI1] | 2.38 ± 0.12
53 | KIHSILPVMESLDSCTA [YJR042W/NUP85] | 2 ± 0.13
54 | KIKLLTQATSEDGTSAS [RPC19] | 2.89 ± 0.062

Row | Sequence | protein stability index
55 | KIPSASIWGNGYSGYGN [SNF5] | 3.42 ± 0.095
56 | KIQASDVNIIGKDRIAI [RPO31] | 2.87 ± 0.087
57 | KIQQQQPGYADLEHKED [QCR6] | 2.69 ± 0.069
58 | KIRMLTQAAEFLSPYIS [IRR1] | 1.74 ± 0.074
59 | KITTSTEDQKVTTNINW [SRP68] | 3.21 ± 0.068
60 | KIVVLSRTGPVFDLCWN [RRP43] | 2.91 ± 0.066
61 | KIYDAFPQTAMLRRHAA [DIS3] | 2.58 ± 0.12
62 | KKASDLVDTPSNNTAAT [NUT1] | 3.11 ± 0.046
63 | KKCLKLAYENKITDKED [POP4] | 2.797 ± 0.02
64 | KKIRFLQLIIFLRTQFL [RGR1] | 1.19 ± 0.15
65 | KKIRNVPVRDGVTIEFS [RPL9A] | 2.43 ± 0.16
66 | KKLATRPKCGDCGSALQ [RPL34A] | 2.31 ± 0.16
67 | KKLELPKYIDELKTRDA [SWP82] | 2.78 ± 0.077
68 | KKLFQKKENLTRDETVS [YML103C/NUP188] | 3.01 ± 0.08
69 | KKLKAVRIIKHTLDIIN [RPS5] | 1.91 ± 0.057
70 | KKMGVPYAIVKGKARLG [RPL8A] | 2.12 ± 0.17
71 | KKNDEVSKPAFSFGAKA [YJL041W/NSP1] | 2.96 ± 0.094
72 | KKQQAALTNELNELKAI [YIL149C/MLP2] | 1.83 ± 0.092
73 | KKRAPRAVKEIKKFAKL [RPL31A] | 2.86 ± 0.16
74 | KKRMNSNQERCHDEGND [RRI1] | 3.06 ± 0.071
75 | KKRSQAKMNAKTDFAKI [RPC82] | 3.22 ± 0.076
76 | KKTCSSCGYPAAKTRSY [RPL37A] | 2.69 ± 0.093
77 | KKTCSSCGYPSAKTRSH [RPL37B] | 2.63 ± 0.084
78 | KKVKLAVLSYYKVDAEG [RPS31] | 2.52 ± 0.074
79 | KLALAENDTNMNETLNL [SMC4] | 3.04 ± 0.1

Row | Sequence | protein stability index
80 | KLDSKKTVPFQVNQLQR [SSN3] | 3.19 ± 0.046
81 | KLFNKWSFEEVEVKDAS [RPS5] | 1.4 ± 0.15
82 | KLHMGTDDVRLAPELNQ [RPL31A] | 3.13 ± 0.083
83 | KLIPKLYRYRFDPFQAV [ECM29] | 2.71 ± 0.11
84 | KLKEYLDLVARTATLSN [YDL116W/NUP84] | 2.99 ± 0.1
85 | KLLASTEENKANTNSVT [YIL149C/MLP2] | 3.25 ± 0.056
86 | KLRKIAISKKNKSLKYV [LIN1] | 1.23 ± 0.14
87 | KLTGDDQKFGVPVRSFK [ASC1] | 2.77 ± 0.1
88 | KLTRELEKKFPDRHVIF [RPS7B] | 2.99 ± 0.04
89 | KLVTNVVDPKTSIEKSS [YML103C/NUP188] | 2.52 ± 0.069
90 | KLWRKIARLYSCISISD [RRI2] | 2.69 ± 0.064
91 | KLYVDAVHSIIALSRRF [YDL116W/NUP84] | 1.82 ± 0.12
92 | KLYVSHIQVNQAPKQRR [RPL17A] | 2.02 ± 0.14
93 | KMMSFQANPTEESISKF [RPB5] | 2.4 ± 0.2
94 | KNAANTEGHKGHEELKR [ISW2] | 3.2 ± 0.098
95 | KNHFRKHWQERVKVHFD [RPL13A] | 1.47 ± 0.083
96 | KNIKIIMATNRLDILDP [RPT6] | 2.41 ± 0.068
97 | KNKSGKIFVETKFSKLI [FAS1] | 2.3 ± 0.16
98 | KNKYGEINSEDYDNKTK [SRP68] | 3.43 ± 0.06
99 | KNLKHIDVTFTKVNNQL [RPL9A] | 2.52 ± 0.07
100 | KNREVVQVSKAGGLPMD [RRP45] | 2.54 ± 0.095
101 | KNVENTKNLSILTSKVN [DSN1] | 2.53 ± 0.077
102 | KNYSRPSTAIHTSPHQP [SIR4] | 2.65 ± 0.053
